The source of these data is the RNAGym collection of RNA variant scans (doi:10.1093/nar/gkz1192).

The labels stand for the following.
B1: CPEB3 Ribozyme (parent)
chain: UAACAGGGGGCCACAGCAGAAGCGUUCACGUCGCAGCCCCUGUCAGAUUCUGGUGAAUCUGCGAAUUCUGCUGUAUAUCUC

In the data set the parent is B1. Nature of the data set: self-cleavage, relative activity (ratio to wild type); higher = more cleavage; in vitro, sequencing. In a few lines:
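After error-prone PCR and barcoding, CPEB3 ribozyme mutant libraries were transcribed with T7 RNA polymerase at 37°C for 5 hours, then given 15 min with DNase I before an EDTA stop, and they cleaved during both steps. Reverse transcription with template switching preceded Illumina sequencing. Relative activity divides a variant's cleaved/total read fraction by the unmutated ribozyme's. At least 5 reads were required per variant, and three batches were averaged.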
UAACAGGGGGCCACAGCAGAAGCGUUCACGUCGCAGCCCCUGUCAGACUCUGGUGAAACUGCGAAUUCUGCUGUAUAUCUC: the self-cleavage stood at 0.23.
The value for UAACAGGGGGCCACAGCAGAAGCGUUCACGUCGCAGCCCCUGUCAGAUUCUGGUGAAUCUGCGAAUUCUGCGGUAUACCUC was 1.01.
The figure for UAACAGGGGGCCACAGCAGAAGCGUUCACGUCGCUGCCCCUGUUAGAUUCUGGUGAAUCUGCGAAUUCUGCUGUAUAUCUC is 0.16.
The value for UAACAGGGGGCCACAGCAGAAGCGUUCACGUCGCAGCCCCCGUCAGAUACUGGUGAAUCUGCGAAUUCUGCUGUAUAUCUC was 0.89; that for UAACAGGGGGCCACAGCAGAAGUGUUCUCGUCGCAGCCCCUGUCAGAUUCUGGUGAAUCUGCGAAUUCUGCUGUAUAUCUC was 0.23.
In the case of UAACAGGGGGCCACAGCAGAAGCGUUCACGUUGCAGCUCCUGUCAGAUUCUGGUGAAUCUGCGAAUUCUGCUGUAUAUCUC, the self-cleavage turned out to be 0.08.
The figure for UAACAGGGGGCCACAGCAGAAGCGUUCACGUCGCAGCCCCUGACAGAUUCUGGUGAAUCUGCGAAUUCUGCCGUAUAUCUC is 1.17; for UAACAGGGGGCCACAGCAGAAGCGUUCACGUCGCAGCCCCUGUCAGUUUCUGGUGAAUCUGCGAAUUCUGCUGAAUAUCUC it is 0.64.
The figure for UAACAGGGGGCCACAGCAGAAGCGUUCUCGUCGCAGCCCCUGUCAGAUUCUGGUGAAUCUGCGAAUUCUGUUGUAUAUCUC is 0.39.
Turning to UAACAGGGGGCCACAGCAGAAGUGCUCACGUCGCAGCCCCUGUCAGAUUCUGGUGAAUCUGCGAAUUCUGCUGUAUAUCUC, the self-cleavage amounted to 0.19.
The value for UAACAGGGGGCCACAGCAGAAGCGUUCACGUCGCUGCCCCUGCCAGAUUCUGGUGAAUCUGCGAAUUCUGCUGUAUAUCUC was 0.35; that for UAGAAGGGGGCCACAGCAGAAGCGUUCACGUCGCAGCCCCUGUCAGAUUCUGGUGAAUCUGCGAAUUCUGCUGUAUAUCUC was 1.17.
The figure for UAACAGGGGGCCACAGCAGAAGCGUUCACGUCGCAGCCCCGGUCAGAUUCUGGUGAAUCUGCGAAUUCUGCUGUAUAACUC is 0.26.
The value for UAACAGGGGGCCACAGCAGAAGCGUUCACGUCGCAGCCCCUGCCAGAUUCUGGUGAACCUGCGAAUUCUGCUGUAUAUCUC was 0.23.
As for UAACAGGGGGCCACAGCAGAAGCGUUCACGUCGCAGCCCCUGUCAGAUUCUGGAGAAUCUGCGAAUUCUGCUGUAUGUCUC, the self-cleavage was found to be 1.06.
The value for UAACAGGGGGCCACAGCAGAAGCGUUCACGUCGCAGCCCCUGGCAGAUUCUGGUGAAUCUGCGAAUUCUGCUGUAUAUCUC was 0.28; that for UAACAGGGGGCUACAGCAGAAGCGCUCACGUCGCAGCCCCUGUCAGAUUCUGGUGAAUCUGCGAAUUCUGCUGUAUAUCUC was 0.38; that for UAACAGGGGGCCACAGCAGAAGCGUUCACGUCGCAGCCCCUGUCAGAUUCCGGUUAAUCUGCGAAUUCUGCUGUAUAUCUC was 0.73.
Consider UAACAGGGAGCCACAGCAGAAGCGUUCACGUCGCAGCCCCUGUCAGAUUCCGGUGAAUCUGCGAAUUCUGCUGUAUAUCUC, for which the self-cleavage amounted to 0.37.
Take UAACAGGGGGCCACAGCAGAAGAGUUCACGUCGCAGCCCCUGUCAGAUUCUGGUGAAUCUGCGAAUUCUGCUGUAUAUCUG: the self-cleavage was 0.22.
The value for UAACAGGGGGCCACAGCAGAAGCGUUCGCGUCGCAGCCCCUGUCAGAUUCUGGUGAAUCUGCGAAUUCUGCUGUAUUUCUC was 0.79; that for CAACAGGGGGCCACAGCAGAAGCGUUCACGUCGCAGCACCUGUCAGAUUCUGGUGAAUCUGCGAAUUCUGCUGUAUAUCUC was 0.18; that for UAACAGGGGGCCACGACAGAAGCGUUCACGUCGCAGCCCCUGUCAGAUUCUGGUGAAUCUGCGAAUUCUGCUGUAUAUCUC was 0.33.
Turning to UAACAGGGGACCACAGCAGAAGCGUUCACGUCGCAGCCCCUGUCUGAUUCUGGUGAAUCUGCGAAUUCUGCUGUAUAUCUC, the self-cleavage came to 0.19.
The figure for UAACAGGGGGCCACAGCAGAAGCGUUCACGUCGCAGCCCCUGUCAGGUUCUGGUGAUUCUGCGAAUUCUGCUGUAUAUCUC is 0.29.
For UAACAGGGGGCCACAGCAGAAGCGUUCACGUCGCAGCCCCUGUCAGAUUCUGGUGAAUCUGCGAAUUCUGCUGUAAAUCCC, the self-cleavage was determined as 1.23.
The figure for UAACGGGUGGCCACAGCAGAAGCGUUCACGUCGCAGCCCCUGUCAGAUUCUGGUGAAUCUGCGAAUUCUGCUGUAUAUCUC is 0.46; for UAACAGGGGGCCUCAGCAGAAGCGUUCACGUCGCAGCCCCUGUCAGAUUCUGGUGAAUCUGCGAAUUCUGCUCUAUAUCUC it is 1.26.
Turning to UAACAGGGGGCCACAGCAGAAGCGUUCACGUAGCAGCCCCUGUCAGAUUCUGGUAAAUCUGCGAAUUCUGCUGUAUAUCUC, the self-cleavage came out at 0.5.
The value for AAACAGGGGGCCACAGCAGAAGCGUUCACGUCGCAGCCCCUGUCAGAUUCUGGUGAAUCUGCGAAUUCUGCCGUAUAUCUC was 1.02; that for UAACAGGGGGCCACAGCAGAAGCGUUCACGUCGCAGCCCCUGUCCGAUUCAGGUGAAUCUGCGAAUUCUGCUGUAUAUCUC was 0.41; that for UAACAGGGGGCCGCAGCAGAAGCGUUCACGUCGCAGCCCCUGUCAGAUUCUGGUGAAUCCGCGAAUUCUGCUGUAUAUCUC was 0.38.
As to UAACAGGGGGCCACAGCAGAAGCGUUCACGUCGCAGCCCCUGUGAGAUUCUGGUGAAUCUGCGAAUUCUGCUGUAUAUCUC, the self-cleavage is 0.52.
Turning to UAACAGGGGGCCACACCAGAAGCGUUCACGUCGCAUCCCCUGUCAGAUUCUGGUGAAUCUGCGAAUUCUGCUGUAUAUCUC, the self-cleavage stood at 0.17.
